The test has as its target PECAM-1 (purified, immobilised on the sensor chip) (UniProt P16284). Description: SPR. For orientation: Surface plasmon resonance follows binding to a sensor surface in real time, without labels.

Results on 2 substances are retold here after PMC8945619.

One may read the Kd as the free concentration of one partner at which half of the binding sites on the other are occupied at equilibrium, for simple one-to-one binding. Lower therefore signals higher affinity.

soluble CD177 in complex with proteinase 3 (sCD177/PR3), sequence (Q8N6Q3 22-408): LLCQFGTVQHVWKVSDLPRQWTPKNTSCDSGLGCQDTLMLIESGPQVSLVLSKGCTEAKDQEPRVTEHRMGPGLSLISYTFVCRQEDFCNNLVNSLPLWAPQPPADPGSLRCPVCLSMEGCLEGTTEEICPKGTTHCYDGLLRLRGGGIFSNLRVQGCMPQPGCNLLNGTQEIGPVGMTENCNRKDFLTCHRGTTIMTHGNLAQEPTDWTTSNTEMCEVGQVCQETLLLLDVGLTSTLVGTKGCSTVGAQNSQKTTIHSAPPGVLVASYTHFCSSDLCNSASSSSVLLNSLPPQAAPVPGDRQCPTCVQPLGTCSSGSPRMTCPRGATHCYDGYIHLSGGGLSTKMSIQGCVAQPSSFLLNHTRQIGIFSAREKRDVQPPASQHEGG
soluble CD177 in complex with proteinase 3 (sCD177/PR3), sequence (P24158 28-248): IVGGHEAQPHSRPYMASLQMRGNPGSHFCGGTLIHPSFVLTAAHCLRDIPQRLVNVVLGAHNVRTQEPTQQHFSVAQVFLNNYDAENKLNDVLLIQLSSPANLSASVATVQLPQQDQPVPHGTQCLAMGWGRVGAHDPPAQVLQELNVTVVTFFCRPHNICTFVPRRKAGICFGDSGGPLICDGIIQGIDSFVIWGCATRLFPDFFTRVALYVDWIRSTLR
recombinant proteinase 3 (rPR3), sequence (P24158 28-248): as above

“recombinant proteinase 3 (rPR3) (from UniProt P24158 28-248) (enzyme)” came in with a dissociation constant Kd of 49.8 nM. The result for “soluble CD177 in complex with proteinase 3 (sCD177/PR3) (from UniProt Q8N6Q3 22-408; P24158 28-248)” reads 7.39 nM.
